Substitutions are numbered along the chain they refer to.
B1: Hu1210-8 (antibody, V domains shown)
VH: EVQLVESGGGLVKPGGSLRLSCAASGFTFSSYDMSWVRQAPGKGLEWVATISDGGGYIYYSDSVKGRFTISRDNAKNSLYLQMNSLRAEDTAVYYCAREFGKRYALDYWGQGTTVTVSS
VL: DIQMTQSPSSLSASVGDRVTITCKASQDVTPAVAWYQQKPGKSPKLLIYSTSSRYTGVPSRFSGSGSGTDFTFTISSLQPEDIATYYCQQHYTTPLTFGQGTKLEIK
B2: Hu1210-27 (antibody, V domains shown)
VH: B1 VH with K13Q, Y95I, T114L
VL: DIQMTQSPSSLSASVGDRVTITCKASQDVTPAVAWYQQKPGKAPKLLIYSTSSRYTGVPSRFSGSGSGTDFTLTISSLQPEDFATYYCQQHYTTPLTFGQGTKLEIKR
B3: Hu1210-17 (antibody, V domains shown)
VH: B1 VH with K13Q, G44S, A88D, Y95I
VL: B1 VL with S43A
B4: Hu1210-31 (antibody, V domains shown)
VH: B1 VH with K13Q, Y95I
VL: B2 VL
B5: Hu1210-36 (antibody, V domains shown)
VH: B1 VH with K13Q, A40T, G42E, G44S, S78N, Y95I, T114L
VL: B2 VL
B6: H1210 chimera (antibody, V domains shown)
VH: EVKLVESGGDLVKPGGSLKLSCAASGFTFSSYDMSWVRQTPEKSLEWVATISDGGGYIYYSDSVKGRFTISRDNAKNNLYLQMSSLRSEDTALYICAREFGKRYALDYWGQGTSVTVSS
VL: DIVMTQSHKFMSTSVGDRVSISCKASQDVTPAVAWYQQKPGQSPKLLIYSTSSRYTGVPDRFTGSGSGTDFTFTISSVQAEDLAVYYCQQHYTTPLTFGAGTKLELK
notes: also called chimeric antibody
B7: Hu1210-3 (antibody, V domains shown)
VH: B1 VH with G44S, Y95I
VL: B1 VL with S43A
notes: Not the mouse mAb HL1210-3
B8: Hu1210-14 (antibody, V domains shown)
VH: B1 VH with V5L, K13Q, G44S, A75S, S78T, Y95I
VL: B1 VL with S43A
B9: Hu1210-16 (antibody, V domains shown)
VH: B1 VH with K13Q, A88D
VL: B1 VL with S43A
B10: Hu1210-22 (antibody, V domains shown)
VH: B1 VH with K13Q, G44S, A88D, Y95I
VL: B1 VL
B11: Hu1210-19 (antibody, V domains shown)
VH: B1 VH with V5L, K13Q, G44S, A75S, S78T, Y95I
VL: B1 VL

Target: human PD-L1 expressed on CHOK1 cells (PDL1-CHOK1 cell line) (human) (UniProt Q9NZQ7)
Sequence (Q9NZQ7 19-290): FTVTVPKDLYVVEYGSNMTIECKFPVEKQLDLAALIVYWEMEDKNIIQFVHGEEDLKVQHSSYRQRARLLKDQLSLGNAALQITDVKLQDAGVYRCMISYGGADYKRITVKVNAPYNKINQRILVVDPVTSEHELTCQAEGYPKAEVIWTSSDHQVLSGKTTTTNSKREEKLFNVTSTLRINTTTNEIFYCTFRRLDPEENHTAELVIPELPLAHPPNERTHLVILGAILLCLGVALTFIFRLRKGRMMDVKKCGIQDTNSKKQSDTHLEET
Test: FACS on PDL1-CHOK1 cells, MFI of Alexa 488 anti-human IgG; EC50 table under the graph, unit from the x axis Antibodies(nM); fit value of a flat control curve, see non_binding

| Molecule | EC50 [µM] |
| --- | --- |
| Hu IgG (antibody) | 9.55 |

Target: T1, human PD-L1 expressed on CHOK1 cells (PDL1-CHOK1 cell line) (human, UniProt Q9NZQ7 19-290)
T1 construct: whole, on cells; also called PDL1-CHOK1 cells; PD-L1 expressed on mammalian cells
T1 sequence (Q9NZQ7 19-290): as above
Test: FACS receptor blocking: PDL1-CHOK1 cells, competitor Bio-PD1 (30 µg/ml)
Method: To evaluate the blocking effect of humanized antibodies on human PD-L1 expressed on mammalian cells to bind to its receptor PD-1, the FACS-based receptor blocking assay was employed. Briefly, PDL1-CHOK1 cells were firstly incubated with 3-fold serious diluted HL1210-3 mouse mAb starting at 20 μg/ml at RT for 1 hour. After wash by FACS buffer (PBS with 2% FBS), the biotin-labeled huPD-1 were added to each well and incubated at RT for 1 hour. Then, the Streptavidin-PE were added to each well for 0.5 hour post twice wash with FACS buffer. The mean florescence intensity (MFI) of PE were evaluated by FACSAriaIII.

| Molecule | TOP [%] |
| --- | --- |
| B1 | 86.3 |
| B2 | 104 |
| B3 | 80.9 |
| B4 | 92.9 |
| B5 | 91.8 |
| B6 | 87.2 |
| B7 | 84.3 |
| B8 | 79.6 |
| B9 | 88 |
| B10 | 85.8 |
| B11 | 87.5 |

Reference: patent publication US20180346573A1 (I MAB, published 2018)
